Results from patent publication US7268108.
[ ]: non-standard residue; d: D form. The star is where a group is joined. dPhe(4-NO2) = N[C@H](Cc1ccc([N+](=O)[O-])cc1)C(=O)O; Benzenesulfonyl = O=S(=O)(c1ccccc1)*; d(hPhe) = N[C@H](CCc1ccccc1)C(=O)O; d2Thi = N[C@H](Cc1cccs1)C(=O)O; NMeNle = CCCC[C@H](NC)C(=O)O; PyrProp = pyridinepropionyl; Tos = Cc1ccc(S(=O)(=O)*)cc1; Nle = CCCC[C@H](N)C(=O)O

Each binder was assayed against melanocortin-1 receptor (MC-1r) on murine melanocytes (line S91 Cloudman) (murine) (UniProt Q01727) (assay: cell-based or functional assay).
Chain of melanocortin-1 receptor (MC-1r) on murine melanocytes (line S91 Cloudman) (murine) (Q01727 whole entry): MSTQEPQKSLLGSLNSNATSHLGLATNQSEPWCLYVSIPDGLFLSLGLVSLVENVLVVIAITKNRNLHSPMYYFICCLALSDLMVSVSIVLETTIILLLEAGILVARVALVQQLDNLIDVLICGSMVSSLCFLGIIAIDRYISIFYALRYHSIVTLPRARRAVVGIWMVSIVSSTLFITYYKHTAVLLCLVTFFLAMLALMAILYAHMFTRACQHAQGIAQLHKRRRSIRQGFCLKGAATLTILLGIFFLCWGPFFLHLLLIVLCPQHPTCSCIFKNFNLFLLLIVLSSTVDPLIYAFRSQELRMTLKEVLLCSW

Row | cAMP production (as % of α-MSH) | Binder
1 | 100 % of α-MSH | Tos-[Nle]AH[dF]RW-NH2 [Compound No. 5 in the Table, Tos-Nle-Ala-His-DPhe-Arg-Trp-NH2]
2 | 10 % of α-MSH | Ac-[Nle]AH[d2Thi]RW-NH2 [Compound No. 3 in the Table, Ac-Nle-Ala-His-DThi-Arg-Trp-NH2]
3 | 40 % of α-MSH | Ac-[Nle]AH[dF]KW-NH2 (SMILES CCCC[C@H](NC(C)=O)C(=O)N[C@@H](C)C(=O)N[C@@H](Cc1c[nH]cn1)C(=O)N[C@H](Cc1ccccc1)C(=O)N[C@@H](CCCCN)C(=O)N[C@@H](Cc1c[nH]c2ccccc12)C(N)=O) [Compound No. 2 in the Table, Ac-Nle-Ala-His-DPhe-Lys-Trp-NH2]
4 | 150 % of α-MSH | PyrProp-[Nle]AH[dPhe(4-NO2)]RW-NH2 [Compound No. 11 in the Table, PyrProp-Nle-Ala-His-DpNO2Phe-Arg-Trp-NH2]
5 | 80 % of α-MSH | Ac-[Nle]AH[dF]RW-NH2 [Compound No. 1 in the Table, Ac-Nle-Ala-His-DPhe-Arg-Trp-NH2]
6 | 55 % of α-MSH | Ac-[NMeNle]AH[d(hPhe)]RW-NH2 [Compound No. 13 in the Table, Ac-MeNle-Ala-His-DHomoPhe-Arg-Trp-NH2]
7 | 45 % of α-MSH | Ac-[Nle]AH[d(hPhe)]RW-NH2 [Compound No. 14 in the Table, Ac-Nle-Ala-His-DHomoPhe-Arg-Trp-NH2]
8 | 70 % of α-MSH | Benzenesulfonyl-[Nle]AH[dF]RW-NH2 [Compound No. 4 in the Table, BzlSO2-Nle-Ala-His-DPhe-Arg-Trp-NH2]
9 | 55 % of α-MSH | Benzenesulfonyl-[Nle]AH[dF]KW-NH2 (SMILES CCCC[C@H](NS(=O)(=O)c1ccccc1)C(=O)N[C@@H](C)C(=O)N[C@@H](Cc1c[nH]cn1)C(=O)N[C@H](Cc1ccccc1)C(=O)N[C@@H](CCCCN)C(=O)N[C@@H](Cc1c[nH]c2ccccc12)C(N)=O) [Compound No. 6 in the Table, BzlSO2-Nle-Ala-His-DPhe-Lys-Trp-NH2]
